Data set [1] deals with pro-MSP (single-chain recombinant human pro-macrophage-stimulating protein, C672A).
The subject of data set [2] is pro-MSP-R483E (cleavage-site mutant of pro-MSP).

extracellular domain of human recombinant hepsin, sequence (chain, as listed by the source): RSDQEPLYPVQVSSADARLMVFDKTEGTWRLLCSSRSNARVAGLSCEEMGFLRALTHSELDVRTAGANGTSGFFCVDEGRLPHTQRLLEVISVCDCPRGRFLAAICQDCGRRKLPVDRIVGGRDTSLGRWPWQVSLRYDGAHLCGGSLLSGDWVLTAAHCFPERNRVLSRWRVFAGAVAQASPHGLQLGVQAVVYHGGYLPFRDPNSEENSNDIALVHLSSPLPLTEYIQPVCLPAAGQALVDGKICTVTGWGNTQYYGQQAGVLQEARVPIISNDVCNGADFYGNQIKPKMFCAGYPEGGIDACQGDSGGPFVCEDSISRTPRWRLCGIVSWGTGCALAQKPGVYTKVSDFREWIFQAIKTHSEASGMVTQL
pro-MSP-R483E (cleavage-site mutant of pro-MSP), sequence (chain, as listed by the source R483E): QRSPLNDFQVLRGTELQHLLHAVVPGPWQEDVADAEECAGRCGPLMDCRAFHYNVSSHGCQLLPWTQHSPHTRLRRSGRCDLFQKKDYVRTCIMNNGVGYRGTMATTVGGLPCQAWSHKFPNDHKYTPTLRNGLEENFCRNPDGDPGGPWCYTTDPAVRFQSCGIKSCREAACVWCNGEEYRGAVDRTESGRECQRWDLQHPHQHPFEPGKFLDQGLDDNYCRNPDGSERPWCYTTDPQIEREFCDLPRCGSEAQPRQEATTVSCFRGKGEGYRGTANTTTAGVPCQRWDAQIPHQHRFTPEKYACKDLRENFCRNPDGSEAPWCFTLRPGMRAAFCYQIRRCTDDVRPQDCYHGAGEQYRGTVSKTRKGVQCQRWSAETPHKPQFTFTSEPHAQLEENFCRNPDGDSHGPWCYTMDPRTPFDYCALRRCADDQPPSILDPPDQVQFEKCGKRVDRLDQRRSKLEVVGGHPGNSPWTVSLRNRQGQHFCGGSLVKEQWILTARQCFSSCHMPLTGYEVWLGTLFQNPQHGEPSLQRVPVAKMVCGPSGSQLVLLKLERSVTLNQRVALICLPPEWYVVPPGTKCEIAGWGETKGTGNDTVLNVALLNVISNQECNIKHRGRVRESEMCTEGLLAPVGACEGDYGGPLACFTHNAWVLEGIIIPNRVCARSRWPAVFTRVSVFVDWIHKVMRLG

With “extracellular domain of human recombinant hepsin”, the “proteolytic activation of pro-MSP, gel-mobility shift on reducing SDS-PAGE (hepsin 1.25-10 nM, 37° C.)” value in data set [1] was “Hepsin activated pro-MSP in a dose-dependent and time dependent manner”. In addition, the “proteolytic processing by hepsin, SDS-PAGE” value in data set [2] is reported as “Hepsin did not cleave this mutant pro-MSP despite prolonged incubation (24 hours)”.

The record behind these values is patent US20120282271.
